Source: patent US20200317768A1 (published 2020)

Columns and labels:
Test in all cases: SPR (BIACORE); KD of SG1 / KD of variant;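 further: relative to parent M103205H795-SG1 carrying the SG1 human heavy chain constant region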
[1] = biological target: T1, cynomolgus monkey FcγRIIa1 extracellular domain with C-terminal His-tag (cynomolgus monkey)
T1 construct: also called cyno FcgRIIa1; cynoFcγRIIa1
T1 chain: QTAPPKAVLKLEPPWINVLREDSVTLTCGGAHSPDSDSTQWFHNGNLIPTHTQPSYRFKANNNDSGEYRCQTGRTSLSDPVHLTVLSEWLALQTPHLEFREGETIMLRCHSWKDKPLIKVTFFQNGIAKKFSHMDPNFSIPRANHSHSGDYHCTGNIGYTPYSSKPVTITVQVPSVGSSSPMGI

[2] = biological target: T2, cynomolgus monkey FcγRIIa2 extracellular domain with C-terminal His-tag (cynomolgus monkey)
T2 construct: also called cyno FcgRIIa2; cynoFcγRIIa2
T2 chain: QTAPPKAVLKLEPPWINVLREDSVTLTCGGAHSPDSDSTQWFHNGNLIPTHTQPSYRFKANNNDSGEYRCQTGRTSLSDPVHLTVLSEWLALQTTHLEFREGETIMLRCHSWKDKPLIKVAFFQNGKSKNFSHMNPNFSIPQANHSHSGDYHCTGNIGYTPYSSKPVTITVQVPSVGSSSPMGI

[3] = biological target: T3, cynomolgus monkey FcγRIIb extracellular domain with C-terminal His-tag (cynomolgus monkey)
T3 construct: also called cyno FcgRIIb; cynoFcγRIIb
T3 chain: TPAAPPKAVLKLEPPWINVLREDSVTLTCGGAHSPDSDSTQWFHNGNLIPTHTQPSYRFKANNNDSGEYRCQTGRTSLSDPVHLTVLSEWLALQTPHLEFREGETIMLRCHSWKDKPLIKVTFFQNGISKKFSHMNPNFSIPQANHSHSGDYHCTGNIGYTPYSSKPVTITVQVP

[4] = biological target: T4, cynomolgus monkey FcγRIIIaS extracellular domain with C-terminal His-tag (cynomolgus monkey, UniProt Q8SPW2 21-206 at identity 1.00))
T4 construct: also called cyno FcgRIIIaS; cynoFcγRIIIaS
T4 chain: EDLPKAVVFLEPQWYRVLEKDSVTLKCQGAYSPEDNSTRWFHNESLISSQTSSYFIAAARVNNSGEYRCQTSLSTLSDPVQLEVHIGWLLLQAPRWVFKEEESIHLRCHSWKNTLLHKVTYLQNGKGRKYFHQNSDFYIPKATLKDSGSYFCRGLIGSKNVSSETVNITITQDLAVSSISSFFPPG

[5] = biological target: T5, human FcγRIIaH extracellular domain with C-terminal His-tag (human, UniProt P12318 34-217)
T5 construct: also called human FcgRIIaH; FcγRIIa (type H)
T5 sequence: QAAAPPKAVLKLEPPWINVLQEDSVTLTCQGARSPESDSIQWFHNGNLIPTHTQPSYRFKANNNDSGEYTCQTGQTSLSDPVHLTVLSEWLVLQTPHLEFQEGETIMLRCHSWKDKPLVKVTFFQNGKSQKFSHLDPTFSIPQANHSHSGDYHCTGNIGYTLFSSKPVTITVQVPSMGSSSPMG

[6] = biological target: T6, human FcγRIIaR extracellular domain with C-terminal His-tag (human, UniProt P12318 34-217)
T6 construct: also called human FcgRIIaR; FcγRIIa (type R)
T6 chain: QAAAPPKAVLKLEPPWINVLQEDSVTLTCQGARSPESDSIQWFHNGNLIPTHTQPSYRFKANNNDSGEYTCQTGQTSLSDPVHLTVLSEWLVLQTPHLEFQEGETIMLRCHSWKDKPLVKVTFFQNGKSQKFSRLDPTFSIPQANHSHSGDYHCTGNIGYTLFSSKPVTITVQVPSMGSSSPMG

[7] = biological target: T7, human FcγRIIb extracellular domain with C-terminal His-tag (human, UniProt P31994 43-217)
T7 construct: also called human FcgRIIb
T7 sequence: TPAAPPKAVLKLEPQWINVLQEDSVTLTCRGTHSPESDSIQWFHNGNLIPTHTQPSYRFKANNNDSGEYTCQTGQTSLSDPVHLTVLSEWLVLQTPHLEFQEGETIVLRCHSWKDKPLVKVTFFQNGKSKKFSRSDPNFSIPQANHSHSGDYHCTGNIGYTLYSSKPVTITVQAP

[8] = biological target: T8, human FcγRIIIaV extracellular domain with C-terminal His-tag (human, UniProt P08637 17-208)
T8 construct: also called human FcgRIIIaV

Measured: KD fold (SG1 = 1)

T8 sequence (P08637 17-208 F176V): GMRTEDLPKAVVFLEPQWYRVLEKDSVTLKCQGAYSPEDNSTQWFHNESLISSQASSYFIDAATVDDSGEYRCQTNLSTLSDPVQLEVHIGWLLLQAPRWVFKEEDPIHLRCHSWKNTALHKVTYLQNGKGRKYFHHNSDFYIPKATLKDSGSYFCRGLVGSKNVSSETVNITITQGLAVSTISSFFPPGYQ

B1: MS_M103205H795-SG1/M103202L889-SK1 (antibody, human IgG1, kappa)
heavy: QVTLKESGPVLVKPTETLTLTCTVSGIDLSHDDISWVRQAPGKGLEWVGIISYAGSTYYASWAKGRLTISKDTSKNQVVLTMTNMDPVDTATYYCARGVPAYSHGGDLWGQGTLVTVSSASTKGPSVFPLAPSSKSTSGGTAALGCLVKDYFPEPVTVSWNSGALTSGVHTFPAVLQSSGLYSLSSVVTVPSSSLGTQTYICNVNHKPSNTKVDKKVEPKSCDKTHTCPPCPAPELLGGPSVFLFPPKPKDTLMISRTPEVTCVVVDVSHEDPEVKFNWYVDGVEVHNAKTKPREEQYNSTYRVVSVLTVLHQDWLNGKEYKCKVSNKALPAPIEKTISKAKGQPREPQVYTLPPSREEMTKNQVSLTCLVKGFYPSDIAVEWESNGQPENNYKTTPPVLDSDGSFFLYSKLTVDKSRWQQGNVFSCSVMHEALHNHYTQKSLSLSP
light: DIVMTQSPATLSLSPGERATLSCTSSQSVYHANWLSWFQQKPGQPPKLLIYWASTLAYGVPSRFSGSGSGTDFTLTISSLQPEDAATYYCAGGYGGGRYAFGQGTKVEIKRTVAAPSVFIFPPSDEQLKSGTASVVCLLNNFYPREAKVQWKVDNALQSGNSQESVTEQDSKDSTYSLSSTLTLSKADYEKHKVYACEVTHQGLSSPVTKSFNRGEC
notes: Parent antibody of the Fc variants; also called MS1032LO06-SG1
1 fold: all assays above
